T1: ENaC (Homo sapiens, UniProt P37088+P51168+P51170)
T1 construct: measured the transepithelial voltage under thin film conditions in human bronchial epithelial cultures; endogenous in cells; host or cells: primary human bronchial epithelial cultures (normal or CF donors)
T1 sequence (P37088 1-669): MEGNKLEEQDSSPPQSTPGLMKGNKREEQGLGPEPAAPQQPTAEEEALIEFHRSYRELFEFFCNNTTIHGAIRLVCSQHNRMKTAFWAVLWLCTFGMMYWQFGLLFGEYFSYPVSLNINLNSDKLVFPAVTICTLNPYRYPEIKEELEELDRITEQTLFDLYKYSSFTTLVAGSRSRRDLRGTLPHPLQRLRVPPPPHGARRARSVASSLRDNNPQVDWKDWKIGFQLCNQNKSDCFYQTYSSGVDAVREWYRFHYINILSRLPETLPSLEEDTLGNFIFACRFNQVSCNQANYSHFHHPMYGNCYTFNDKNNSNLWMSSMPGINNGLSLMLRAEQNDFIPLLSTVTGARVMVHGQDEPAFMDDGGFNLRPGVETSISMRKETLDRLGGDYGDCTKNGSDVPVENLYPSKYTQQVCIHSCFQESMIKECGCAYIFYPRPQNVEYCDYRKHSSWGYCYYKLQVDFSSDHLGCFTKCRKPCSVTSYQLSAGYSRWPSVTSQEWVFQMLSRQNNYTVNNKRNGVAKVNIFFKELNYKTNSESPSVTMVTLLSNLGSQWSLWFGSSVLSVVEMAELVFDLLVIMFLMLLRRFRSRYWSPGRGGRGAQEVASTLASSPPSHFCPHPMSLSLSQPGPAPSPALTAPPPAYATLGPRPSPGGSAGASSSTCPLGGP
T1 sequence (P51168 1-640): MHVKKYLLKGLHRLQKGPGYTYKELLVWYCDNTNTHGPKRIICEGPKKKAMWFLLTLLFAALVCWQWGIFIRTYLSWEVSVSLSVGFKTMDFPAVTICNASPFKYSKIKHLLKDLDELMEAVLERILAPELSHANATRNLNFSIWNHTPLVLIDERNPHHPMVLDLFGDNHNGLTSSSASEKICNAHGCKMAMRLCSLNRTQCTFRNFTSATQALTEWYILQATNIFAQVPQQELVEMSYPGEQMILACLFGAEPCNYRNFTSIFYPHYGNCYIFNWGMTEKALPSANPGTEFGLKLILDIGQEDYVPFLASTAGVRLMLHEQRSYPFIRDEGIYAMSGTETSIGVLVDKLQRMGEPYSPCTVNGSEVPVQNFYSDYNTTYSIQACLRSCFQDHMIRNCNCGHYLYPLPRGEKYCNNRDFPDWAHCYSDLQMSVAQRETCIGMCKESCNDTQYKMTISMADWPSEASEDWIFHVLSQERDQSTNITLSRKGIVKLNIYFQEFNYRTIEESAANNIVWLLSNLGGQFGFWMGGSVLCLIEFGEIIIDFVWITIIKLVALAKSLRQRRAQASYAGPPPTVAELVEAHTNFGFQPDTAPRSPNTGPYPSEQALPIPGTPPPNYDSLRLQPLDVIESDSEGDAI
T1 sequence (P51170 1-649): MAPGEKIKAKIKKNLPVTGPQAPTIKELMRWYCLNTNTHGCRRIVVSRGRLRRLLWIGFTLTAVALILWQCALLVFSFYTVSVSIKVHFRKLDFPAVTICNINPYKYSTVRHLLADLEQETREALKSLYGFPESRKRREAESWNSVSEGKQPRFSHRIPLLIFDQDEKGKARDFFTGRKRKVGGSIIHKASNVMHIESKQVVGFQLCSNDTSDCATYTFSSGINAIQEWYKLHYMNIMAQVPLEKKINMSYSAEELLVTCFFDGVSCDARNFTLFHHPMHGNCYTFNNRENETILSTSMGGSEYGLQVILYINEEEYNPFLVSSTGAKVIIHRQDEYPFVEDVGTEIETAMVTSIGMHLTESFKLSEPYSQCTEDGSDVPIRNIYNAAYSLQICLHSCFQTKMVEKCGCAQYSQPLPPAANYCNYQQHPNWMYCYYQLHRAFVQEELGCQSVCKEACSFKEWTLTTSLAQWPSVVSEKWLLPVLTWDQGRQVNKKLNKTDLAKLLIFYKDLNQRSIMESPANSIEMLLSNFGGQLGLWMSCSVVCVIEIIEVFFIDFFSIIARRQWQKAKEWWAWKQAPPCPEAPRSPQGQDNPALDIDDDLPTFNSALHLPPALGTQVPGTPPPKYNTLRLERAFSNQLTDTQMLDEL

B1: recombinant SPLUNC1 that had been reduced with DTT: recombinant SPLUNC1 pretreated (reduced) with DTT (protein, UniProt Q9NP55 20-256, looked up)
BPI fold-containing family A …: QFGGLPVPLDQTLPLNVNPALPLSPTGLAGSLTNALSNGLLSGGLLGILENLPLLDILKPGGGTSGGLLGGLLGKVTSVIPGLNNIIDIKVTDPQLLELGLVQSPDGHRLYVTIPLGIKLQVNTPLVGASLLRLAVKLDITAEILAVRDKQERIHLVLGDCTHSPGSLQISLLDGLGPLPIQGLLDSLTGILNKVLPELVQGNVCPLVNEVLRGLDITLVHDIVNMLIHGLQFVIKV
modifications: DTT-reduced
B2: mutant SPLUNC1: SPLUNC1 with hinge domain mutated to alanines: K94A, N103A, N104A, K138A, Q140A, N142A, D193A (protein, UniProt Q9NP55 20-256, looked up, variant K94A N103A N104A K138A Q140A N142A D193A)
BPI fold-containing family A …: QFGGLPVPLDQTLPLNVNPALPLSPTGLAGSLTNALSNGLLSGGLLGILENLPLLDILKPGGGTSGGLLGGLLGAVTSVIPGLAAIIDIKVTDPQLLELGLVQSPDGHRLYVTIPLGIALAVATPLVGASLLRLAVKLDITAEILAVRDKQERIHLVLGDCTHSPGSLQISLLAGLGPLPIQGLLDSLTGILNKVLPELVQGNVCPLVNEVLRGLDITLVHDIVNMLIHGLQFVIKV

Tests used:
[1] = biological target: T1, ENaC; test: Transepithelial voltage (PD), thin film conditions, human bronchial epithelial cultures; format: cell-based; details: 50 ng/ml, PD remeasured 45 min later, prewashed cultures
Text: Tissue procurement and cell culture: Cells were harvested by enzymatic digestion from human bronchial tissue as previously described under a protocol approved by the UNC School of Medicine IRB (Tarran et al., J. Gen. Physiol. 127:591 (2006)). Human excess donor lungs and excised recipient lungs were obtained at the time of lung transplantation from portions of main stem or […] bronchi and cells were harvested by enzymatic digestion. All preparations were maintained at an air-liquid interface in a modified bronchial epithelial medium and used 2-5 weeks after seeding on 12 mm T-Clear inserts (Corning Costar) coated with human placental type VI collagen (Sigma). Phosphate buffered saline (PBS) was used for washing human bronchial epithelial culture mucosal surfaces. HBECs were maintained at an air-liquid interface in a modified bronchial epithelial growth medium (BEGM) with 5% CO2 at 37° C. and used 2-5 weeks after seeding on 12-mm T-clear inserts (Corning-Costar, Corning, N.Y., USA) (Randell, Methods Mol. Biol. 742:285 (2011)).
A single-barreled potential difference-sensing electrode was placed in the airway surface liquid by micromanipulator and used in conjunction with a macroelectrode in the serosal solution to measure transepithelial voltage using a voltmeter (World Precision Instruments). […] Transepithelial resistance was routinely measured using the EVOM system (WPI) as previously described (Tarran et al., J. Gen. Physiol. 127:591 (2006)).

[2] = tested on: CF HBECs; details: 30 μM, ASL height over 24 h
Experimental: To label airway surface liquid, Ringer containing Texas Red-dextran (2 mg/ml; Invitrogen) was added to human bronchial epithelial culture mucosal surfaces. Perfluorocarbon was added mucosally to prevent evaporation of the airway surface liquid and the culture placed in a chamber containing 100 μl Ringer on the stage of a Leica SP5 confocal microscope with a 63× glycerol immersion objective. 5 points per culture were scanned and an average airway surface liquid height determined. For confocal microscopy human bronchial epithelial cultures were bathed serosally in a modified Ringer solution containing (mM): 116 NaCl, 10 NaHCO3, 5.1 KCl, 1.2 CaCl2, 1.2 MgCl2, 20 TES, 10 glucose, pH 7.4). At all other times, human bronchial epithelial cultures were maintained in a modified BEGM growth medium which contained 24 mM NaHCO3 gassed with 5% CO2.
To label the ASL, PBS containing 10 kDa Rhodamine dextran (0.2-2 mg/mL; Invitrogen, Carlsbad, Calif., USA) was added to HBEC mucosal surfaces as previously described (Tarran et al., Mol. Cell 8:149 (2001)). When added, peptides with or without 100 nM neutrophil elastase, 1 U/mL aprotinin, activated neutrophil supernatant (ANS) (Haynes et al., Am. J. Physiol. Heart Circ. Physiol. 294:H379 (2008)) or 10 μM sivelestat (Sigma-Aldrich, St Louis, Mo., USA) were added to the mucosal surface along with the Rhodamine dextran. Bumetanide (100 μM) was added to the serosal solution.

| Molecule | inhibition of transepithelial PD after DTT reduction [1] | ASL absorption in CF cultures [2] |
| --- | --- | --- |
| B1 | abolished SPLUNC1 activity |  |
| B2 |  | significantly inhibited ASL absorption |
